Article PMC5349785 (Molecular Biology of the Cell, 2017)

Legend:
[1] = biological target: T1, CSC with GFP-tagged Vps29 (CSC-GFP) (S. cerevisiae, UniProt P34110;P40335;P38759); test: recruitment to giant unilamellar vesicles
[2] = biological target: T1, CSC with GFP-tagged Vps29 (CSC-GFP); test: pull-down

T1 sequence (P34110 whole entry, chain 1 of 3): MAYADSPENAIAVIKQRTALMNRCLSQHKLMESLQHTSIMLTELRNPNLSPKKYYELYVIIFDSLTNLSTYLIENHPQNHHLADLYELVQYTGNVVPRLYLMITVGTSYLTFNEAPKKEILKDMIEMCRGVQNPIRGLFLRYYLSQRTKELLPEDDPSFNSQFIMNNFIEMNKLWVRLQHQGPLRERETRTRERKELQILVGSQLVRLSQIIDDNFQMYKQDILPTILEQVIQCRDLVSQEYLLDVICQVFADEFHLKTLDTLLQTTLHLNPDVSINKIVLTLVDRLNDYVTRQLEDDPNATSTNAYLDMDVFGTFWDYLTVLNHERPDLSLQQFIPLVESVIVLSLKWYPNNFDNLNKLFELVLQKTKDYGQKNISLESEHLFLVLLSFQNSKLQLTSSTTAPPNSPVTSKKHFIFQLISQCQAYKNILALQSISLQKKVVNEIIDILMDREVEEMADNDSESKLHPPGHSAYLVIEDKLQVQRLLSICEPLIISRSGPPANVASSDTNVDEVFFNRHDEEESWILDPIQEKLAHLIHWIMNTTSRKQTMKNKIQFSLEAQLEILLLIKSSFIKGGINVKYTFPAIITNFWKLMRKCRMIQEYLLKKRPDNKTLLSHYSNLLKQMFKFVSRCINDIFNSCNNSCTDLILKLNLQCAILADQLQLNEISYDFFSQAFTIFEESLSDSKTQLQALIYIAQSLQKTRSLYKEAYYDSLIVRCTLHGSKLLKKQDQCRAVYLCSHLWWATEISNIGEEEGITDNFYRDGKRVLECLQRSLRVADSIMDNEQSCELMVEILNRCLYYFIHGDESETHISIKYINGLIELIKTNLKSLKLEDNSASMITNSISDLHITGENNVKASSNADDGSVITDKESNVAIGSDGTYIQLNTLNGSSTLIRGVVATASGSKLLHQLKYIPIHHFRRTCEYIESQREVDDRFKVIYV
T1 sequence (P40335 whole entry, chain 2 of 3): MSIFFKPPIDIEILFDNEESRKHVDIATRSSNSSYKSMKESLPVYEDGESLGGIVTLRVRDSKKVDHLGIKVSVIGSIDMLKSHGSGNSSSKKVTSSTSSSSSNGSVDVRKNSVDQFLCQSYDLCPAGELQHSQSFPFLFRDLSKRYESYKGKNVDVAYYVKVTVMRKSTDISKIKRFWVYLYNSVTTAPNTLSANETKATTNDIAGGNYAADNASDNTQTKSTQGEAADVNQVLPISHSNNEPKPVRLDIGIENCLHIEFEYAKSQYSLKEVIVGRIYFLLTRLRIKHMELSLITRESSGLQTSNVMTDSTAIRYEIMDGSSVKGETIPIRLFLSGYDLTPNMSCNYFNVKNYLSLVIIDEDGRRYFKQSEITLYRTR
T1 sequence (P38759 whole entry, chain 3 of 3): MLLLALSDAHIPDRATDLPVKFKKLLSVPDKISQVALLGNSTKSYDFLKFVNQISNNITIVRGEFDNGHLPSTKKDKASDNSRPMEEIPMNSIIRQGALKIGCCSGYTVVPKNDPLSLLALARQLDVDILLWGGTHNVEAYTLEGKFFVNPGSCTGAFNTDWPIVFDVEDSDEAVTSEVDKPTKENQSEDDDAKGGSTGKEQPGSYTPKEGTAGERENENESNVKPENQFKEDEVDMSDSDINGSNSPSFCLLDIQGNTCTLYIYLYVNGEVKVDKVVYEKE

| binding result [1] | binding result [2] | Binder |
| --- | --- | --- |
| binds | – | fluorescently labeled Ypt7 without His tag (natural protein, fluorescent label: ATTO (legend of Figure 5); DY-647 maleimide derivative (methods)) MSSRKKNILKVIILGDSGVGKTSLMHRYVNDKYSQQYKATIGADFLTKEVTVDGDKVATMQVWDTAGQERFQSLGVAFYRGADCCVLVYDVTNASSFENIKSWRDEFLVHANVNSPETFPFVILGNKIDAEESKKIVSEKSAQELAKSLGDIPLFLTSAKNAINVDTAFEEIARSALQQNQADTEAFEDDYNDAINIRLDGENNSCSC |
| – | binds | SNX-BAR complex with GFP-tagged Vps17 (SNX-BAR-GFP) (complex) chain 1: MDYEDNLEAPVWDELNHEGDKTQSLVSNSIESIGQISTNEERKDNELLETTASFADKIDLDSAPEWKDPGLSVAGNPQLEEHDNSKADDLINSLAPEQDPIADLKNSTTQFIATRESGGALFTGNANSPLVFDDTIYDANTSPNTSKSISGRRSGKPRILFDSARAQRNSKRNHSLKAKRTTASDDTIKTPFTDPLKKAEKENEFVEEPLDDRNERRENNEGKFTASVEKNILEQVDRPLYNLPQTGANISSPAEVEENSEKFGKTKIGSKVPPTEKAVAFKVEVKDPVKVGELTSIHVEYTVISESSLLELKYAQVSRRYRDFRWLYRQLQNNHWGKVIPPPPEKQSVGSFKENFIENRRFQMESMLKKICQDPVLQKDKDFLLFLTSDDFSSESKKRAFLTGSGAINDSNDLSEVRISEIQLLGAEDAAEVLKNGGIDAESHKGFMSISFSSLPKYNEADEFFIEKKQKIDELEDNLKKLSKSLEMVDTSRNTLAASTEEFSSMVETLASLNVSEPNSELLNNFADVHKSIKSSLERSSLQETLTMGVMLDDYIRSLASVKAIFNQRSKLGYFLVVIENDMNKKHSQLGKLGQNIHSEKFREMRKEFQTLERRYNLTKKQWQAVGDKIKDEFQGFSTDKIREFRNGMEISLEAAIESQKECIELWETFYQTNL chain 2: MTSAVPYDPYDDLDNNPFAEPQEEDSEPAATTTDGSSSMSEERVGTEQTAASVQDNGTANNIQNGLGEEGNATRSKTSNEHNENQQPSQPSERVILPERSDEKKKYTLLAKVTGLERFGSATGKKENPTIIFDCSTNLPTFRKQQYKNVKKSYEEFHQLFKYLNVAIQESFVPTLPSAYTTFGINSEEDRMKVTRNFQLWFNRLSQDPLIIRNEEVAFFIESDFNTYTPINKSKSLASGLKRKTLKQLAPPYDEITELAEFRPLVKSIYVVSQSLQEKLLRVSRNRKMMVQEENAFGQDFVNLDEHNKLYRRYGKILTAVGDIDSIIATMDMATLYDGLEWIVRDAYAVKEALTNRHFIMRNLVQAQQNSKAKQEQARRFRSRRDINPMKIDEALRQLKAAAKNEQVLTLKLQRITSNMIIERKQWISWYEEWIRSSIKEFTLRKIEYERKKLTLLERVRSDIRKADENGGLSRLGRHAVSNNNSDTSQTLKGDSWTGESNRKSQIPINKIAHTEFDDELFTEDDGYNSQDSDTTSLNARHAASLLGMSTK |
| binds | – | SNX-BAR complex (Vps5-Vps17 heterodimer) (complex) chain 1: MDYEDNLEAPVWDELNHEGDKTQSLVSNSIESIGQISTNEERKDNELLETTASFADKIDLDSAPEWKDPGLSVAGNPQLEEHDNSKADDLINSLAPEQDPIADLKNSTTQFIATRESGGALFTGNANSPLVFDDTIYDANTSPNTSKSISGRRSGKPRILFDSARAQRNSKRNHSLKAKRTTASDDTIKTPFTDPLKKAEKENEFVEEPLDDRNERRENNEGKFTASVEKNILEQVDRPLYNLPQTGANISSPAEVEENSEKFGKTKIGSKVPPTEKAVAFKVEVKDPVKVGELTSIHVEYTVISESSLLELKYAQVSRRYRDFRWLYRQLQNNHWGKVIPPPPEKQSVGSFKENFIENRRFQMESMLKKICQDPVLQKDKDFLLFLTSDDFSSESKKRAFLTGSGAINDSNDLSEVRISEIQLLGAEDAAEVLKNGGIDAESHKGFMSISFSSLPKYNEADEFFIEKKQKIDELEDNLKKLSKSLEMVDTSRNTLAASTEEFSSMVETLASLNVSEPNSELLNNFADVHKSIKSSLERSSLQETLTMGVMLDDYIRSLASVKAIFNQRSKLGYFLVVIENDMNKKHSQLGKLGQNIHSEKFREMRKEFQTLERRYNLTKKQWQAVGDKIKDEFQGFSTDKIREFRNGMEISLEAAIESQKECIELWETFYQTNL chain 2: MTSAVPYDPYDDLDNNPFAEPQEEDSEPAATTTDGSSSMSEERVGTEQTAASVQDNGTANNIQNGLGEEGNATRSKTSNEHNENQQPSQPSERVILPERSDEKKKYTLLAKVTGLERFGSATGKKENPTIIFDCSTNLPTFRKQQYKNVKKSYEEFHQLFKYLNVAIQESFVPTLPSAYTTFGINSEEDRMKVTRNFQLWFNRLSQDPLIIRNEEVAFFIESDFNTYTPINKSKSLASGLKRKTLKQLAPPYDEITELAEFRPLVKSIYVVSQSLQEKLLRVSRNRKMMVQEENAFGQDFVNLDEHNKLYRRYGKILTAVGDIDSIIATMDMATLYDGLEWIVRDAYAVKEALTNRHFIMRNLVQAQQNSKAKQEQARRFRSRRDINPMKIDEALRQLKAAAKNEQVLTLKLQRITSNMIIERKQWISWYEEWIRSSIKEFTLRKIEYERKKLTLLERVRSDIRKADENGGLSRLGRHAVSNNNSDTSQTLKGDSWTGESNRKSQIPINKIAHTEFDDELFTEDDGYNSQDSDTTSLNARHAASLLGMSTK |
| binds | – | cytosolic domain of Vps10 (residues 1415-1579), His-tagged (domain or fragment, Cy5 label (Cyc-5 amine derivative) in Figures 3 and 4) YDRGIRRNGGFARFGEIRLGDDGLIENNNTDRVVNNIVKSGFYVFSNIGSLLQHTKTNIAHAISKIRGRFGNRTGPSYSSLIHDQFLDEADDLLAGHDEDANDLSSFMDQGSNFEIEEDDVPTLEEEHTSYTDQPTTTDVPDTLPEGNEENIDRPDSTAPSNENQ |
| – | binds | N-terminal fragment of Vps5 (residues 1-280) (domain or fragment) MDYEDNLEAPVWDELNHEGDKTQSLVSNSIESIGQISTNEERKDNELLETTASFADKIDLDSAPEWKDPGLSVAGNPQLEEHDNSKADDLINSLAPEQDPIADLKNSTTQFIATRESGGALFTGNANSPLVFDDTIYDANTSPNTSKSISGRRSGKPRILFDSARAQRNSKRNHSLKAKRTTASDDTIKTPFTDPLKKAEKENEFVEEPLDDRNERRENNEGKFTASVEKNILEQVDRPLYNLPQTGANISSPAEVEENSEKFGKTKIGSKVPPTEKAVA |
